Laboratory results reported in doi:10.1101/2025.04.17.649292.

Target: poly-L-proline (PLP) coupled to Sepharose 4B
Assay: affinity chromatography on poly-L-proline Sepharose

Work on “GST-δLdPfn (LdPfn with amino acids 110 to 128 deleted, N-terminal GST tag) (natural protein)” yielded a reduction of binding to PLP relative to GST-LdPfn of 30%.
